# B1: His-tagged talin R7R8R9-2Y (E1794Y/E1797Y) (domain or fragment, UniProt P26039 1357-1822, looked up)
# chain: APGQKECDNALRQLETVRELLENPVQPINDMSYFGCLDSVMENSKVLGEAMTGISQNAKNGNLPEFGDAIATASKALCGFTEAAAQAAYLVGVSDPNSQAGQQGLVEPTQFARANQAIQMACQSLGEPGCTQAQVLSAATIVAKHTSALCNSCRLASARTANPTAKRQFVQSAKEVANSTANLVKTIKALDGDFTEENRAQCRAATAPLLEAVDNLSAFASNPEFSSVPAQISPEGRAAMEPIVISAKTMLESAGGLIQTARALAVNPRDPPRWSVLAGHSRTVSDSIKKLITSMRDKAPGQLECETAIAALNSCLRDLDQASLAAVSQQLAPREGISQEALHTQMLTAVQEISHLIEPLASAARAEASQLGHKVSQMAQYFEPLTLAAVGAASKTLSHPQQMALLDQTKTLAESALQLLYTAKEAGGNPKQAAHTQYALYEAVQMMTEAVEDLTTTLNEAASAAG
# B2: His-tagged talin R7R8R9-3Y (E1794Y/E1797Y/Q1801Y) (domain or fragment, UniProt P26039 1357-1822, looked up)
# chain: APGQKECDNALRQLETVRELLENPVQPINDMSYFGCLDSVMENSKVLGEAMTGISQNAKNGNLPEFGDAIATASKALCGFTEAAAQAAYLVGVSDPNSQAGQQGLVEPTQFARANQAIQMACQSLGEPGCTQAQVLSAATIVAKHTSALCNSCRLASARTANPTAKRQFVQSAKEVANSTANLVKTIKALDGDFTEENRAQCRAATAPLLEAVDNLSAFASNPEFSSVPAQISPEGRAAMEPIVISAKTMLESAGGLIQTARALAVNPRDPPRWSVLAGHSRTVSDSIKKLITSMRDKAPGQLECETAIAALNSCLRDLDQASLAAVSQQLAPREGISQEALHTQMLTAVQEISHLIEPLASAARAEASQLGHKVSQMAQYFEPLTLAAVGAASKTLSHPQQMALLDQTKTLAESALQLLYTAKEAGGNPKQAAHTQYALYEAVYMMTEAVEDLTTTLNEAASAAG
# Assays:
# crystal structure = target: the molecule itself; assay: crystal structure
# [1] = target: His-tagged talin F2F3 domains (residues 196-405), wild type (UniProt P26039 196-405); assay: pull-down
# [2] = target: His-tagged talin F2F3-K324A (UniProt P26039 196-405, K324A); assay: pull-down
# [3] = target: His-tagged talin F2F3-KKR (K272A/K274A/R277A) (UniProt P26039 196-405, K272A | K274A | R277A); assay: pull-down
# [4] = target: His-tagged talin F2F3-K322A (UniProt P26039 196-405, K322A); assay: pull-down
# [5] = target: B1; assay: pull-down
# [6] = target: His-tagged talin R7R8R9 (residues 1357-1822), wild type (UniProt P26039 1357-1822); assay: pull-down
# [7] = target: B2; assay: pull-down
# SEC-MALS = target: the molecule itself; assay: SEC-MALS
binder,measurement,setting,value
"talin R7R8R9 (residues 1357-1822), wild type, His tag removed, as crystallised (domain or fragment, UniProt P26039 1357-1822, looked up) APGQKECDNALRQLETVRELLENPVQPINDMSYFGCLDSVMENSKVLGEAMTGISQNAKNGNLPEFGDAIATASKALCGFTEAAAQAAYLVGVSDPNSQAGQQGLVEPTQFARANQAIQMACQSLGEPGCTQAQVLSAATIVAKHTSALCNSCRLASARTANPTAKRQFVQSAKEVANSTANLVKTIKALDGDFTEENRAQCRAATAPLLEAVDNLSAFASNPEFSSVPAQISPEGRAAMEPIVISAKTMLESAGGLIQTARALAVNPRDPPRWSVLAGHSRTVSDSIKKLITSMRDKAPGQLECETAIAALNSCLRDLDQASLAAVSQQLAPREGISQEALHTQMLTAVQEISHLIEPLASAARAEASQLGHKVSQMAQYFEPLTLAAVGAASKTLSHPQQMALLDQTKTLAESALQLLYTAKEAGGNPKQAAHTQEALEEAVQMMTEAVEDLTTTLNEAASAAG",binding result,crystal structure,binds
"GST-tagged talin R9 domain (residues 1655-1822), wild type (domain or fragment, UniProt P26039 1655-1822, looked up) APGQLECETAIAALNSCLRDLDQASLAAVSQQLAPREGISQEALHTQMLTAVQEISHLIEPLASAARAEASQLGHKVSQMAQYFEPLTLAAVGAASKTLSHPQQMALLDQTKTLAESALQLLYTAKEAGGNPKQAAHTQEALEEAVQMMTEAVEDLTTTLNEAASAAG",binding result,[1],binds
same,binding result,[2],binds
same,binding result,[3],binds
same,binding result,[4],binds
"GST-tagged talin R9-3Y (E1794Y/E1797Y/Q1801Y) (domain or fragment, UniProt P26039 1655-1822, looked up) APGQLECETAIAALNSCLRDLDQASLAAVSQQLAPREGISQEALHTQMLTAVQEISHLIEPLASAARAEASQLGHKVSQMAQYFEPLTLAAVGAASKTLSHPQQMALLDQTKTLAESALQLLYTAKEAGGNPKQAAHTQYALYEAVYMMTEAVEDLTTTLNEAASAAG",binding result,[1],binds
"GST-tagged talin R9-T1812Y (domain or fragment, UniProt P26039 1655-1822, looked up) APGQLECETAIAALNSCLRDLDQASLAAVSQQLAPREGISQEALHTQMLTAVQEISHLIEPLASAARAEASQLGHKVSQMAQYFEPLTLAAVGAASKTLSHPQQMALLDQTKTLAESALQLLYTAKEAGGNPKQAAHTQEALEEAVQMMTEAVEDLTYTLNEAASAAG",binding result,[1],binds
"GST-tagged talin F2F3 domains (residues 196-405) (domain or fragment, UniProt P26039 196-405, looked up) KFFYSDQNVDSRDPVQLNLLYVQARDDILNGSHPVSFDKACEFAGFQCQIQFGPHNEQKHKAGFLDLKDFLPKEYVKQKGERKIFQAHKNCGQMSEIEAKVRYVKLARSLKTYGVSFFLVKEKMKGKNKLVPRLLGITKECVMRVDEKTKEVIQEWSLTNIKRWAASPKSFTLDFGDYQDGYYSVQTTEGEQIAQLIAGYIDIILKKKKS",binding result,[5],binds
same,binding result,[6],binds
same,binding result,[7],binds
B1,stoichiometry N,SEC-MALS,2
B2,stoichiometry N,SEC-MALS,2
